This is an account of results in the supplement of paper PMC9112550, “Optimization of the antimicrobial peptide Bac7 by deep mutational scanning” (BMC Biology, 2022).

This data set concerns Escherichia coli TOP10. The data set can be described thus: shrunken log2 fold change of peptide-encoding DNA abundance (4.5 h post-induction vs induction); higher = less antimicrobial activity (less host growth inhibition). The note with it: time post-induction: 4.5 h; library: site-saturation at positions 5, 18, 19, 20.
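Also: peptides expressed intracellularly from a pBAD plasmid library in pooled LB shake-flask culture, induced with 0.3% L-arabinose, DNA abundance read by NGS, three biological replicates, DESeq2 with apeglm shrinkage.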

On to RRIRVRPPRLPRPRPRPEAHPRP, for which the “shrunken log2 fold change” value came out at 0.0146.

Turning to RRIRFRPPRLPRPRPRPRGAPRP, the “shrunken log2 fold change” value came out at 0.493. With RRIRIRPPRLPRPRPRPQETPRP the figure was -0.0344.

Take RRIRFRPPRLPRPRPRPNSNPRP: the “shrunken log2 fold change” value is -0.996. With RRIRARPPRLPRPRPRPEGVPRP the figure was 1.1; with RRIRMRPPRLPRPRPRPKTTPRP, 1.09; with RRIRCRPPRLPRPRPRPSWQPRP, -0.0872.

Take RRIRGRPPRLPRPRPRPQGPPRP: the “shrunken log2 fold change” value turned out to be 0.224. As for RRIRRRPPRLPRPRPRPNCLPRP, the figure is 0.312; as for RRIRFRPPRLPRPRPRPAFIPRP, -0.274. As for RRIRTRPPRLPRPRPRPYDFPRP, the figure is -0.385.

Consider RRIRWRPPRLPRPRPRPCAIPRP, for which the “shrunken log2 fold change” value came to 0.027. For RRIRARPPRLPRPRPRPETSPRP, the “shrunken log2 fold change” value is 0.912.

Consider RRIRQRPPRLPRPRPRPQVKPRP, for which the “shrunken log2 fold change” value is -0.101.

With RRIRHRPPRLPRPRPRPMCVPRP, the “shrunken log2 fold change” value was -0.192. With RRIRGRPPRLPRPRPRPPLKPRP the figure was 1.03; with RRIRHRPPRLPRPRPRPKWTPRP, 0.0551.

As to RRIRMRPPRLPRPRPRPKMLPRP, the “shrunken log2 fold change” value came out at 0.231. For the sequence RRIRSRPPRLPRPRPRPRELPRP, the “shrunken log2 fold change” value came out at 0.0421.

In the case of RRIRIRPPRLPRPRPRPGKAPRP, the “shrunken log2 fold change” value stood at 0.039. Take RRIRRRPPRLPRPRPRPQQHPRP: the “shrunken log2 fold change” value was -0.0327. With RRIRSRPPRLPRPRPRPAGCPRP the figure was 0.459. With RRIRYRPPRLPRPRPRPYTNPRP, the “shrunken log2 fold change” value was -1.35. With RRIRRRPPRLPRPRPRPICNPRP, the “shrunken log2 fold change” value was -0.12. With RRIRLRPPRLPRPRPRPVHTPRP the figure was -0.0875. As for RRIRMRPPRLPRPRPRPHHDPRP, the figure is 0.0126; as for RRIRDRPPRLPRPRPRPIASPRP, 0.194.

With RRIRDRPPRLPRPRPRPPTCPRP, the “shrunken log2 fold change” value amounted to 0.0486. As for RRIRQRPPRLPRPRPRPSDRPRP, the figure is -0.264; as for RRIRVRPPRLPRPRPRPGTDPRP, -0.117. With RRIRARPPRLPRPRPRPITLPRP the figure was -0.13; with RRIRCRPPRLPRPRPRPTSRPRP, -0.0338; with RRIRIRPPRLPRPRPRPPGGPRP, 0.512. As for RRIRERPPRLPRPRPRPKPHPRP, the figure is 0.000708; as for RRIRSRPPRLPRPRPRPDNKPRP, -0.256. On to RRIRLRPPRLPRPRPRPRRDPRP, for which the “shrunken log2 fold change” value turned out to be 0.2. As for RRIRARPPRLPRPRPRPDPTPRP, the figure is 0.447; as for RRIRFRPPRLPRPRPRPWVLPRP, -0.0735; as for RRIRKRPPRLPRPRPRPLHNPRP, 0.0882. With RRIRERPPRLPRPRPRPEYCPRP the figure was 0.0191; with RRIRRRPPRLPRPRPRPPPDPRP, 1.35; with RRIRHRPPRLPRPRPRPLGHPRP, -0.499. With RRIRQRPPRLPRPRPRPSASPRP the figure was 0.0788; with RRIRNRPPRLPRPRPRPNTLPRP, -0.788. RRIRIRPPRLPRPRPRPIGQPRP: the “shrunken log2 fold change” value is -0.0062. With RRIRNRPPRLPRPRPRPMVVPRP the figure was 0.00587; with RRIRHRPPRLPRPRPRPCFSPRP, 0.0626. As for RRIRHRPPRLPRPRPRPLVKPRP, the figure is -0.29; as for RRIRQRPPRLPRPRPRPETHPRP, 0.0176. As to RRIRHRPPRLPRPRPRPNICPRP, the “shrunken log2 fold change” value was -0.925.
